Reference: patent publication US20130129730A1 (Amgen, published 2013)

T1: human EpCAM (human, UniProt P16422 24-314)
T1 construct: whole, on cells; also called Epithelial cell adhesion molecule; CD326
T1 sequence (looked up): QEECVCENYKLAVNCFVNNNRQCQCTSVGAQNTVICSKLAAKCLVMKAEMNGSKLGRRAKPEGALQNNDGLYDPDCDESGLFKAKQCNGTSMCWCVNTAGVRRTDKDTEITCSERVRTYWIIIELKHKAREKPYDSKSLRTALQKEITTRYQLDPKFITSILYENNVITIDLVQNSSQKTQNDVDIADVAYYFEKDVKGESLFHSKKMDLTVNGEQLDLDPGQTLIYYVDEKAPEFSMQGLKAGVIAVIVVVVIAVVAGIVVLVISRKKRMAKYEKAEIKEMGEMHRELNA


target: T1, human EpCAM; assay: flow cytometry, scFv periplasmic preparation on human EpCAM transfected CHO cells
Method: Periplasmic preparations of E. coli clones producing the scFv molecules EpCAM 4-7, PM74-G3, PM52-H3, PM52-C3, PM75-A10 and PM91-B6 are used to examine specific binding to human PSMA or human EpCAM transfected cell lines. As negative control untransfected CHO cell are used.
For flow cytometry 2,5×10⁵ cells are incubated with 50 μl of scFv periplasmic preparation. The binding of scFv to the cells is detected with an anti-His antibody (Penta-His Antibody, BSA free, Qiagen GmbH, Hilden, FRG) at 2 μg/ml in 50 μl PBS with 2% FCS. As a second step reagent a R-Phycoerythrin-conjugated affinity purified F(ab′)2 fragment, goat anti-mouse IgG (Fc-gamma fragment specific), diluted 1:100 in 50 μl PBS with 2% FCS (Dianova, Hamburg, FRG) is used. The samples are measured on a FACSscan (BD biosciences, Heidelberg, FRG).
Flow cytometry is performed on a FACS-Calibur apparatus; the CellQuest software is used to acquire and analyze the data (Becton Dickinson biosciences, Heidelberg). FACS staining and measuring of the fluorescence intensity are performed as described in Current Protocols in Immunology (Coligan, Kruisbeek, Margulies, Shevach and Strober, Wiley-Interscience, 2002).

| Binder | binding result |
| --- | --- |
| scFv PM74-G3 (scFv, Tested as periplasmic preparation from E. coli; also called PM74G3-VH-VL; not shown: His6-tag) scFv: QVQLVQSGAEVKKPGASVKLSCKASGYTFTYFDINWVRQAPEQGLEWMGGISPGDGNTNYNENFKGRVTMTIDTSSSTAYIELSRLTSDDTAVYYCARDGNFPYYAMDSWGQGTTVTVSSGGGGSGGGGSGGGGSDVVMTQTPLSLPVSLGDQASISCRSSQSLVHSNGNTYLHWYLQKPGQSPKLLIYKVSNRFSGVPDRFSGSGSGTDFTLKISRVEAEDLGVYFCSQSTHVPYTFGGGTKLEIKDYKDDDDK | no binding |
| scFv PM52-C3 (scFv, Tested as periplasmic preparation from E. coli; also called PM52C3-VH-VL; not shown: His6-tag) scFv: QVQLVQSGAEVKKPGASVKLSCKASGYTFTYFDINWVRQTPEQGLEWMGGISPGDGNTNYNENFKGRVTMTRDTSSSTAYMELSRLRSDDTAVYYCARDGNFPYYAMDSWGQGTTVTVSSGGGGSGGGGSGGGGSDVVMTQSPLSLPVTLGEPASISCRSSQSLVYSNGNTYLHWYQQKPGQSPRLLIYKVSNRFSGVPDRFSGSGSGTDFTLKISRVEAEDVGVYFCSQSTHVPYTFGQGTKLEIKDYKDDDDK | no binding |
| scFv PM52-H3 (scFv, Tested as periplasmic preparation from E. coli; also called PM52H3-VH-VL; not shown: His6-tag) scFv: QVQLVQSGAEVKKPGASVKLSCKASGYTFTYFDINWVRQTPEQGLEWMGGISPGDGNTNYNENFKGRVTMTRDTSKSTAYMELSRLRSDDTAVYYCARDGNFPYYAMDSWGQGTTVTVSSGGGGSGGGGSGGGGSDVVMTQSPLSLPVTLGEPASISCRSSQSLVYSNGNTYLHWYQQKPGQSPRLLIYKVSNRFSGVPDRFSGSGSGTDFTLKISRVEAEDVGVYFCSQSTHVPYTFGQGTKLEIKDYKDDDDK | no binding |

Continued, values first:

| binding result | Binder |
| --- | --- |
| no binding | scFv PM91-B6 (scFv, Tested as periplasmic preparation from E. coli; also called PM91B6-VH-VL; not shown: His6-tag) scFv: QVQLVQSGAEVKKPGASVKLSCKASGYTFTYFDINWVRQTPEQGLEWMGGISPGDGNTNYNENFKGRVTMTRDTSSSTAYMELSRLRSDDTAVYYCARDGNFPYYALTNWGQGTTVTVSSGGGGSGGGGSGGGGSDVVMTQSPLSLPVTLGEPASISCRSSQSLVYSNGNTYLHWYQQKPGQSPRLLIYKVSNRFSGVPDRFSGSGSGTDFTLKISRVEAEDVGVYFCSQSTHVPYTFGQGTKLEIKDYKDDDDK |
| no binding | scFv PM75-A10 (scFv, Tested as periplasmic preparation from E. coli; also called PM75A10-VH-VL; not shown: His6-tag) scFv: QVQLVQSGAEVKKPGASVKLSCKASGYTFTYFDINWVRQTPEQGLEWMGGISPGDGNTNYNENFKGRVTMTRDTSSSTAYMELSRLRSDDTAVYYCARDGNFPYYAMVNWGQGTTVTVSSGGGGSGGGGSGGGGSDVVMTQSPLSLPVTLGEPASISCRSSQSLVYSNGNTYLHWYQQKPGQSPRLLIYKVSNRFSGVPDRFSGSGSGTDFTLKISRVEAEDVGVYFCSQSTHVPYTFGQGTKLEIKDYKDDDDK |
